In publication PMC8458385, “Molecular basis for PICS-mediated piRNA biogenesis and cell division” (Nature Communications, 2021):
Positions count from the first letter of the chain named. Names may count otherwise.

B1: SUMO-TOST-1^34-54 (domain or fragment, C. elegans, UniProt Q18490 34-54, looked up)
chain: NKRITLNERFGVLEKGYTIQA
notes: TOST-1, C. elegans, residues 34-54; Fused to the C-terminus of SUMO (pET28-SUMO); the Kds are for the SUMO fusion; also called TOST-1 fragment; source: E. coli BL21(DE3), purified (Ni-NTA); not shown: SUMO, N-terminal, kept
B2: SUMO-PID-1^50-70 (domain or fragment, C. elegans, UniProt Q19541 50-70, looked up)
chain: TNLHRKVTLSDRFELAALGYE
notes: PID-1, C. elegans, residues 50-70; Fused to the C-terminus of SUMO; the Kds are for the SUMO fusion; also called PID-1 fragment; source: E. coli BL21(DE3), purified (Ni-NTA); not shown: SUMO, N-terminal, kept
B3: SUMO-PICS-1^180-200 (ERH-2 binding motif, EBM) (domain or fragment, C. elegans, UniProt O76616 180-200, looked up)
chain: EDIKDSVFKVLHAEEEPRGAD
notes: Fused to the C-terminus of SUMO (pET28-SUMO); the Kds are for the SUMO fusion; also called PICS-1EBM; source: E. coli BL21(DE3), purified (Ni-NTA); not shown: SUMO, N-terminal, kept
B4: ERH-2 (natural protein, C. elegans, UniProt Q20057 1-113, looked up)
chain: MSTSSHTVLLIQTSPRLDSRTWGDYESVTDALDALCKMFEDFLSKKSAAPVTYDVSQVYEFLDKLSDVSMMIFNRETGQYIGRTRAWIKQQVYEMMRGRCQHPEGGEKVIVGY
notes: ERH-2, C. elegans, amplified from a cDNA library; also called ERH-2 wild type; source: E. coli BL21(DE3), purified (Ni-NTA, TEV cleavage, second Ni-NTA); not shown: His tag (inferred from the Ni-NTA purification), N-terminal, cleaved
B5: TOFU-6 RRM domain (TOFU-6^RRM, residues 2-92) (domain or fragment, C. elegans, UniProt Q09293 2-92, looked up)
chain: ASSSTAYYLKDAGFHIRNIPKAWNDWNLFHVFQNFGKVSYCRVVGQSNDGQVQLGFVNMMSVADADEVRKNLNDGNLIGENFTLKVTDHKN
notes: TOFU-6, C. elegans, RRM domain, residues 2-92; source: E. coli BL21(DE3), purified (Ni-NTA, TEV cleavage, second Ni-NTA); not shown: His tag (inferred from the Ni-NTA purification), N-terminal, cleaved
B6: TOFU-6^RRM (residues 2-92) (domain or fragment, C. elegans, UniProt Q09293 2-92, looked up)
chain: B5 chain
notes: TOFU-6, C. elegans, RRM domain, residues 2-92; Gene codon-optimised and synthesised; for the crystal co-expressed with PICS-1^RRM from a modified pETDuet-1; also called TOFU-6 RRM domain; TOFU-6^C; source: E. coli BL21(DE3), purified (Ni-NTA, TEV, second Ni-NTA; complex with PICS-1^RRM also Superdex 75); not shown: His tag (from the Ni-NTA purification), N-terminal, cleaved
B7: PICS-1^RRM F217E (domain or fragment, C. elegans, UniProt O76616 201-282, looked up)
chain: QENMLKISGYPGMLNTEGIAQLLTPYRVNGITITGAQSAVVALENKFQVYQAVQDFNGKKLDRNHKLQVSSLVVSSPAVPLE
notes: Cloned into pET28-MHL; the homodimer is disrupted by the mutation; source: E. coli BL21(DE3), purified (Ni-NTA, TEV, second Ni-NTA, Superdex 75); not shown: His tag (from the Ni-NTA purification), N-terminal, cleaved
B8: PICS-1(PID-3) RRM domain (PICS-1^RRM, residues 201-282) (domain or fragment, C. elegans, UniProt O76616 201-282, looked up)
chain: B7 chain with E17F
notes: Homodimer by gel filtration and in the crystal structure; The methods describe co-expression with TOFU-6^RRM from pETDuet-1 for the complex; the results say that the two domains were purified each for ITC; also called WT; source: E. coli BL21(DE3), purified (Ni-NTA, TEV cleavage, second Ni-NTA, gel filtration); not shown: His tag (inferred from the Ni-NTA purification), N-terminal, cleaved
B9: PICS-1^RRM Y250A/Q251A (domain or fragment, C. elegans, UniProt O76616 201-282, looked up)
chain: B7 chain with E17F, Y50A, Q51A
notes: Cloned into pET28-MHL; also called Y250A/Q251A(PICS-1RRM); source: E. coli BL21(DE3), purified (Ni-NTA, TEV cleavage, second Ni-NTA); not shown: His tag (inferred from the Ni-NTA purification), N-terminal, cleaved
B10: PICS-1^RRM K246A/F247A (domain or fragment, C. elegans, UniProt O76616 201-282, looked up)
chain: B7 chain with E17F, K46A, F47A
notes: Cloned into pET28-MHL; Some legends and the strain list print K245A/F246A for the transgene; also called K246A/F247A(PICS-1RRM); source: E. coli BL21(DE3), purified (Ni-NTA, TEV cleavage, second Ni-NTA); not shown: His tag (inferred from the Ni-NTA purification), N-terminal, cleaved
B11: PICS-1^RRM F217E (domain or fragment, C. elegans, UniProt O76616 201-282, looked up)
chain: B7 chain
notes: Cloned into pET28-MHL; also called F217E(PICS-1RRM); source: E. coli BL21(DE3), purified (Ni-NTA, TEV cleavage, second Ni-NTA, gel filtration); not shown: His tag (inferred from the Ni-NTA purification), N-terminal, cleaved
B12: SUMO-fused TOST-1^34-54 (domain or fragment, C. elegans, UniProt Q18490 34-54, looked up)
chain: NKRITLNERFGVLEKGYTIQA
notes: TOST-1, C. elegans, residues 34-54; Cloned into pET28-SUMO; also called TOST-1 fragment; source: E. coli BL21(DE3), purified (Ni-NTA); not shown: SUMO, N-terminal, kept

How the values were obtained:
[1] = target: B4; assay: ITC; MicroCal ITC200, 25 °C; 20 mM Tris pH 8.5, 200 mM NaCl or 20 mM MES pH 6.5, 200 mM NaCl; 1-2 mM protein or peptide in the syringe titrated into 30-50 μM protein in the cell; one-site model; Kd mean ± SD of a minimum of two experiments; settings: both partners purified
[2] = target: T1, ERH-2^1-103-(Gly-Ser-Ser)7-PICS-1^180-200 fusion protein (C. elegans, UniProt Q20057 1-103; O76616 180-200); assay: as above; settings: both partners purified
T1 construct: ERH-2, C. elegans, residues 1-103; 21-aa linker (Gly-Ser-Ser)7; PICS-1 (PID-3), C. elegans, EBM, residues 180-200; the methods describe only the 1-103 fusion; also called ERH-2-(GSS)7-PICS-1180-200; ERH-2-(GSS)7-PICS-1; source: E. coli BL21(DE3), purified (Ni-NTA, TEV cleavage, second Ni-NTA, Superdex 75); not shown: His tag (inferred from the Ni-NTA purification), N-terminal, cleaved
T1 chain: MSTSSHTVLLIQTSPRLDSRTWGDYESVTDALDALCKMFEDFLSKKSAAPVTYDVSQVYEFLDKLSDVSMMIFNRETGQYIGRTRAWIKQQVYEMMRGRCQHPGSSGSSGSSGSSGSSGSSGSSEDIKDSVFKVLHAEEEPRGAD

[3] = target: T2, ERH-2 D67A (C. elegans, UniProt Q20057 1-113, D67A); assay: as above; settings: both partners purified
T2 construct: ERH-2, C. elegans, with D67A; Cloned into pET28-MHL; also called D67A(ERH-2); source: E. coli BL21(DE3), purified (Ni-NTA, TEV cleavage, second Ni-NTA); not shown: His tag (inferred from the Ni-NTA purification), N-terminal, cleaved
T2 sequence (looked up): B4 chain with D67A

[4] = target: T3, PICS-1^5-200 (PICS-1^ΔRRM) (C. elegans, UniProt O76616 5-200); assay: SEC; ERH-2 and TOFU-6^RRM mixed with PICS-1 5-282, PICS-1 5-200 or PICS-1 ΔEBM; Superose 6 Increase 10/300 GL; 20 mM Tris pH 8.5, 200 mM NaCl; peaks analysed by SDS-PAGE; settings: both partners purified
T3 construct: PICS-1 (PID-3), C. elegans, residues 5-200 (lacks the RRM domain); Cloned into pET28-MHL; source: E. coli BL21(DE3), purified (Ni-NTA, TEV cleavage, second Ni-NTA); not shown: His tag (inferred from the Ni-NTA purification), N-terminal, cleaved
T3 sequence (looked up): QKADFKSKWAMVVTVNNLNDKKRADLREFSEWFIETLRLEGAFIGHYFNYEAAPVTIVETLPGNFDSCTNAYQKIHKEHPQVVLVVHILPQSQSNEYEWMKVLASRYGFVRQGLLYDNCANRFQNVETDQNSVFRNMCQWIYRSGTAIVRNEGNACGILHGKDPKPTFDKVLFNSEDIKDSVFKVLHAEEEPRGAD

[5] = target: T4, PICS-1^5-282 (almost full-length PICS-1) (C. elegans, UniProt O76616 5-282); assay: as above; settings: both partners purified
T4 construct: Cloned into pET28-MHL; Two copies in the 2:2:2 complex with ERH-2 and TOFU-6^RRM; source: E. coli BL21(DE3), purified (Ni-NTA, TEV cleavage, second Ni-NTA); not shown: His tag (inferred from the Ni-NTA purification), N-terminal, cleaved
T4 sequence (looked up): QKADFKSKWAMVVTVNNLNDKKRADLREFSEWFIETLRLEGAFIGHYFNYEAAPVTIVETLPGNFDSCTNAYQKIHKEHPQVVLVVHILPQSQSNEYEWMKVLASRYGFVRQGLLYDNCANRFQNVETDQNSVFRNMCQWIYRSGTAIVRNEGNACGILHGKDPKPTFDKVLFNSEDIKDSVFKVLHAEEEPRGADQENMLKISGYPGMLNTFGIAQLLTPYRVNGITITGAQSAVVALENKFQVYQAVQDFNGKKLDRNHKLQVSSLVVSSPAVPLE

[6] = target: T5, PICS-1^5-282 (C. elegans, UniProt O76616 5-282); assay: SEC; ERH-2 and TOFU-6^RRM mixed with PICS-1 constructs, Superose 6 Increase 10/300 GL, 20 mM Tris hydrochloride pH 8.5, 200 mM NaCl; fractions on SDS-PAGE; settings: both partners purified
T5 construct: Cloned into pET28-MHL; also called almost full-length PICS-1; source: E. coli BL21(DE3), purified (Ni-NTA, TEV, second Ni-NTA); not shown: His tag (from the Ni-NTA purification), N-terminal, cleaved
T5 sequence (looked up): T4 sequence (looked up)

[7] = target: B6; assay: ITC; MicroCal ITC200, 25 °C, 20 mM Tris pH 8.5, 200 mM NaCl or 20 mM MES pH 6.5, 200 mM NaCl; 1–2 mM in the syringe into 30–50 μM in the cell; one-site binding model; settings: both partners purified
[8] = target: the molecule itself; assay: SEC; gel filtration of PICS-1^RRM wild type and F217E alone, HiLoad 16/600 Superdex 75; 20 mM Tris, 200 mM NaCl (pH 8.5 in the methods, pH 7.5 in the legend)
[9] = target: B5; assay: ITC; MicroCal ITC200, 25 °C; 20 mM Tris pH 8.5, 200 mM NaCl or 20 mM MES pH 6.5, 200 mM NaCl; 1-2 mM protein or peptide in the syringe titrated into 30-50 μM protein in the cell; one-site model; Kd mean ± SD of a minimum of two experiments; settings: both partners purified
[10] = target: T6, TOFU-6^RRM D26A/W27A (C. elegans, UniProt Q09293 2-92, D26A | W27A); assay: as above; settings: both partners purified
T6 construct: TOFU-6, C. elegans, RRM domain, residues 2-92, with D26A and W27A; Cloned into pET28-MHL; also called D26A/W27A(TOFU-6RRM); source: E. coli BL21(DE3), purified (Ni-NTA, TEV cleavage, second Ni-NTA); not shown: His tag (inferred from the Ni-NTA purification), N-terminal, cleaved
T6 sequence (looked up): B5 chain with D25A, W26A

[11] = target: T7, ERH-2 (C. elegans, UniProt Q20057 1-113); assay: ITC; MicroCal ITC200, 25 °C, 20 mM Tris pH 8.5, 200 mM NaCl or 20 mM MES pH 6.5, 200 mM NaCl; 1–2 mM in the syringe into 30–50 μM in the cell; one-site binding model; settings: both partners purified
T7 construct: ERH-2, C. elegans, amplified from a cDNA library; also called wild type ERH-2; source: E. coli BL21(DE3), purified (Ni-NTA, TEV, second Ni-NTA); not shown: His tag (from the Ni-NTA purification), N-terminal, cleaved
T7 sequence (looked up): B4 chain

B1
stoichiometry N [1]: 0.9
Kd [2]: 4.9 µM
stoichiometry N [2]: 0.9

B2
stoichiometry N [1]: 1
stoichiometry N [2]: 1.3

B3
stoichiometry N [1]: 0.7
stoichiometry N [3]: 0.8

B4
binding result [4]: binds
binding result [5]: binds

B5
binding result [5]: binds

B6
binding result [6]: binds

B7
Kd [7]: 0.57 µM

B8
binding result [8]: binds
stoichiometry N [9]: 1.1
Kd [10]: 30 µM
stoichiometry N [10]: 0.7

B9
Kd [9]: 21 µM
stoichiometry N [9]: 1.2

B10
Kd [9]: 17 µM
stoichiometry N [9]: 1.1

B11
stoichiometry N [9]: 0.7

B12
Kd [11]: 3.2 µM
